Measurements: patent US20250052767A1 (BIOLEGEND, published 2025)
Residue numbers refer to the chain shown, from its start.

B1: exemplary anti-CD28 antibody AB5 (antibody, V domains shown)
VH: EVQLQQSGPELEKPGASVKMSCKASGYSFTDYNMNWVKQSNGKSLEWIGIIDPYYGATTYNQRFKGKATLTVDKSSSTAYMQLKSLTSEDSAVYYCARFGFYGAMDYWGQGISVTVSS
VL: DVVVTQTPLSLPVSFGDQVSISCRSSQSLANSFGNTYLSWYLHKPGQSPQLLIYGISNRFSGVPDRFSGSGSGTDFTLKISTIKPEDLGVYYCLQGTHQPFTFGSGTTLELK
notes: Mouse hybridoma monoclonal antibody; Conjugated to PE in the staining assays; also called antibody 5; clone 5
B2: exemplary anti-CD28 antibody AB2 (antibody, V domains shown)
VH: QVQLQQPGSELMRPGASVKLSCKASGYTFTSYWMHWVKQRHGQGLEWIGNIYPGSGRTIYDEKFKSKATLTVDTSSSTAYMHLSSLTSEDSAVFYCTRSHYGSSFDAMDYWGQGTSVTVSS
VL: DIQVNQSPSSLSASLGDTITITCHASQNIYVWLNWYQQKPGNIPKLLIYKASNLHTGVPSRFSGSGSGTGFTLTISSLQPEDIATYYCQQGQSYPWTFGGGTKLEIK
notes: Mouse hybridoma monoclonal antibody; also called antibody 2; clone 2
B3: exemplary anti-CD28 antibody AB3 (antibody, V domains shown)
VH: KVQLQQSGAGLVKPGASVKLSCKTSGYTFSDYIINWVKQRSGQGLEWIGWFYPGSGSINYNEKFKDKATLTADKSSSTVYMDLSRLTSEDSAVYFCARREDRGGYDAFDYWGQGTTLTVSS
VL: DIQMTQSPASLSVSVGETVTITCRASENIYSNLAWYQQKQGKSPQLLVYAATKLADGVPSRFSGSGSGTQYSLRINSLQSEDFGSYYCQHFWGTPWTFGGGTKLEIK
notes: Mouse hybridoma monoclonal antibody; Conjugated to PE in the staining assays; also called antibody 3; clone 3
B4: exemplary anti-CD28 antibody AB1 (antibody, V domains shown)
VH: QVHLQQSATELARPGASVKMSCKASGYTFTSYTMHWVKQRPGQGLEWIGYIDPGSGYSEFNHKFKDKSTLTADKSSSTAYMQLISLTSEDSAVYYCARRQDNSGYDSFDYWGQGTTLTVSS
VL: B3 VL with A25T, K53N, P59S, T69I, R74K, T94I
notes: Mouse hybridoma monoclonal antibody; also called antibody 1; clone 1
B5: exemplary anti-CD28 antibody AB4 (antibody, V domains shown)
VH: B1 VH
VL: B3 VL
notes: Mouse hybridoma monoclonal antibody; Conjugated to PE in the staining assays; also called antibody 4; clone 4
B6: exemplary anti-CD28 antibody AB6 (antibody, V domains shown)
VH: B3 VH
VL: B3 VL
notes: Mouse hybridoma monoclonal antibody; Conjugated to PE in the staining assays; also called antibody 6; clone 6
B7: exemplary anti-CD28 antibody AB7 (antibody, V domains shown)
VH: B3 VH with T24A
VL: B3 VL with A25T, S80P
notes: Mouse hybridoma monoclonal antibody; Conjugated to PE in the staining assays; also called antibody 7; clone 7
B8: exemplary anti-CD28 antibody AB8 (antibody, V domains shown)
VH: EVKLVESGGGLVQPGGSLKLSCAASGFTFSSYTMSWVRQTPEKRLEWVAYISNGGGTTYYPDTVKGRFTISRDNAKNTLYLQMSSLKSEDTAVYYCARHRPYDYDVLDYWGQGTTLTVSS
VL: DIVMTQSQKFMSTSVGDRVSITCKASQIVGTDVAWYQQKPGQSPKILIFSASNRYTGVPDRFTGSGSGTDFTLTISNMQSEDLADYFCHQYSRYPYTFGGGTKLEIK
notes: Mouse hybridoma monoclonal antibody; Conjugated to PE in the staining assays; also called antibody 8; clone 8

Target: T1, human CD28 (human, UniProt P10747 19-220, On cells CD28 is a disulfide linked homodimer and a glycoprotein; one copy of the chain is given.)
Assay: cell-based or functional assay

T1 sequence (P10747 19-220 limits assumed): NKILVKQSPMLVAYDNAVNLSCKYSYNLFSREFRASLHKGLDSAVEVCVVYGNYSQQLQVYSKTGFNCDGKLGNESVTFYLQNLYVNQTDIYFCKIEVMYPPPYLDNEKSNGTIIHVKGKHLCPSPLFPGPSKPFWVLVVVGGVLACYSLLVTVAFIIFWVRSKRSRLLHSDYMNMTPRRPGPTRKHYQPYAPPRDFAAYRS

Division Index (with anti-CD3 UCHT1) | Expansion Index (with anti-CD3 UCHT1) | Percent Divided (CFSE T cell division, with plate-coated anti-CD3 UCHT1) | Binder
1.17 | 5.39 | 60.5% | B1
0.99 | 4.56 | 44% | B2
1.08 | 5.11 | 55.7% | B3
0.8 | 4.03 | 42% | B4
1.08 | 5.07 | 53.8% | B5
1.32 | 6.04 | 65.8% | B6
0.96 | 4.82 | 48% | B7
0.76 | 3.51 | 40% | B8

Target: T1, human CD28
Assay: flow cytometry, PE-conjugated antibody on fresh human peripheral blood cells, CD3/CD28 gating
Text: Cells were lysed with RBC lysis buffer, washed, and resuspended in Fluorofix solution (containing 1% PFA). Data were acquired on a BD Canto II instrument, and analyzed by FlowJo. […] A histogram was generated of each cell population to quantify median fluorescence intensity (MFI), and the MFI of each exemplary antibody and respective control was used to calculate the signal to noise (S:N) ratio (Table E2).

% CD28+ population | MFI CD28+ population | S/N Ratio | Binder
64.7% | 12500 | 195 | B1
64.2% | 13100 | 207 | B2
65.7% | 15600 | 260 | B3
64.8% | 12600 | 212 | B4
64.9% | 11900 | 193 | B5
66% | 15500 | 249 | B6
64.8% | 16200 | 249 | B7
65% | 5210 | 83.2 | B8

Target: T1, human CD28
Assay: flow cytometry, PE-conjugated antibody on un-fixed human peripheral blood cells
Experimental: (§1) Cells were left either un-fixed or were fixed with 4% PFA for 15 minutes and washed with PBS to remove PFA. Cells were then counted and adjusted in Cell Staining Buffer and stained with exemplary anti-CD28 antibodies conjugated to PE for 30 minutes in the dark. […] Data were acquired on a BD Canto II instrument, and analyzed by FlowJo.

S/N on un-fixed cells | Binder
94.5 | B1
89 | B2
133 | B3
89.2 | B4
75.4 | B5
128 | B6
130 | B7
30.9 | B8

Target: T1, human CD28
Assay: flow cytometry, Ba/F3-human CD28 cells pre-incubated with 70 ug antibody, then 1 ug biotinylated recombinant CD86 (competitor) + labelled streptavidin
Experimental: After 15 minutes of incubation and wash, cells were incubated with PE-conjugated streptavidin. Data were acquired on a BD Canto II, and analyzed using FlowJo software.
This value was subtracted from 100 to get a reduction percentage.

% Reduction (of CD86 binding) | MFI (of CD86 binding after antibody pre-incubation) | Binder
91.9% | 668 | B1
91.4% | 714 | B2
90.4% | 796 | B3
91.1% | 736 | B4
92.1% | 657 | B5
91.1% | 741 | B6
88.5% | 955 | B7
88.8% | 925 | B8

Target: T1, human CD28
Assay: flow cytometry, PE-conjugated antibody on 4% PFA-fixed human peripheral blood cells
Experimental: as §1

S/N on fixed cells | Binder
63.3 | B1
50.1 | B2
101 | B3
61.6 | B4
57.7 | B5
101 | B6
108 | B7
24.6 | B8

Target: T1, human CD28
Assay: cell-based or functional assay
Remark: another data set of the same source

Division Index (no anti-CD3) | Expansion Index (no anti-CD3) | Percent Divided (CFSE T cell division, no anti-CD3) | Binder
0.0082 | 1.01 | 0.64% | B1
1.49 | 6.13 | 65.4% | B2
0.0056 | 1.01 | 0.32% | B3
0.0072 | 1.01 | 0.58% | B4
0.0002 | 1 | 0.0091% | B5
0.0047 | 1.01 | 0.33% | B6
0.014 | 1.03 | 0.47% | B7
0.62 | 2.85 | 30.7% | B8
